Assay results reported in paper PMC4609182.

Target: T1, Parkin R0RBR module (RING0, RING1, IBR, RING2), wild type (rat), Q9JK66
T1 chain: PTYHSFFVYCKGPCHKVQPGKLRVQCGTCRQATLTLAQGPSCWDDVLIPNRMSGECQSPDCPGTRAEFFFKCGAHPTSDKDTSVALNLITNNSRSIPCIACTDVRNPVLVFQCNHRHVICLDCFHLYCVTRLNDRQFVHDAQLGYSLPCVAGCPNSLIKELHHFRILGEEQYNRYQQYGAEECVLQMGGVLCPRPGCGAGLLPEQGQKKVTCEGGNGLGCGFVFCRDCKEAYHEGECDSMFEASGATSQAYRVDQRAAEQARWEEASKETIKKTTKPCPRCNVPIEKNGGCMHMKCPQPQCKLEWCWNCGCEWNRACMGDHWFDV
Experiment: ITC; R0RBR (wild type or L266K) titrated with Ubl or pUbl; 20°C; 50 mM Tris–HCl pH 7.4, 150 mM NaCl, 1 mM TCEP; stoichiometry determined experimentally

B1: Parkin Ubl domain (ubiquitin-like domain), unmodified (domain or fragment)
chain: MIVFVRFNSSYGFPVEVDSDTSIFQLKEVVAKRQGVPADQLRVIFAGKELQNHLTVQNCDLEQQSIVHIVQRPQRK
modifications: not checked
Question: With B1 as the binder, how does the Kd read?
Answer: The Kd was 16 µM.
